Data published in patent US20240343799A1 (Innovent, published 2024).

T1: CD79b on the surface of B-cell non-Hodgkin's lymphoma cells (human, UniProt P40259 29-229)
T1 construct: whole, on cells; Endogenous CD79b of the cell lines; on cells it stands in the B cell receptor complex with CD79a; also called CD79b on Ramos cells; CD79b on BJAB cells
T1 sequence (looked up): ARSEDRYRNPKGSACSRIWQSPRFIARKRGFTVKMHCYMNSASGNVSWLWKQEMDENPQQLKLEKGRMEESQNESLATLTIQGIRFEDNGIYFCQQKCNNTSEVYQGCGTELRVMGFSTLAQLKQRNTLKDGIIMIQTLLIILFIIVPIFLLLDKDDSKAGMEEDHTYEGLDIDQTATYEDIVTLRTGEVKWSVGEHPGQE

T2: human CD79b (recombinant antigen in the ForteBio assays) (human, UniProt P40259 29-159)
T2 construct: the immunogen was CD79b protein from Sino, Cat #29750-H08H; also called huCD79b
T2 sequence (looked up): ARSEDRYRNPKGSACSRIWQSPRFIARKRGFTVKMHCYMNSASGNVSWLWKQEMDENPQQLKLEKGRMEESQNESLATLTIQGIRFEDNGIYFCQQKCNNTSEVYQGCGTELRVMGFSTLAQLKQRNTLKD

T3: human CD79b-his (Sino biological) (human, UniProt P40259 29-159)
T3 construct: Amine-coupled to the Biacore chip (about 50 RU); not shown: His tag
T3 sequence (looked up): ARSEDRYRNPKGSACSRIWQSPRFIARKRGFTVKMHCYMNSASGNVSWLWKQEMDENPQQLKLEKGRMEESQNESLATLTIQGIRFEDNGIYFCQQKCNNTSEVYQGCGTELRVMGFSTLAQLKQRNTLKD

T4: monkey CD3E & CD3G-biotin (Sino biological) (cynomolgus monkey, UniProt Q95LI5 22-117; Q95LI7 23-113, limits assumed)
T4 construct: also called Cyno CD3E&G; monkey CD3E&G
T4 sequence (looked up) 1: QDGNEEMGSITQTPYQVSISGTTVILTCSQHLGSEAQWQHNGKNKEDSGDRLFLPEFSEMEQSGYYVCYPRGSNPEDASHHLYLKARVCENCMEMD
T4 sequence (looked up) 2: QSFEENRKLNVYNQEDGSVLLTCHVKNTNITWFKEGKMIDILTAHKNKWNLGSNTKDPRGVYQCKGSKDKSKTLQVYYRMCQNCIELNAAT


Assays:
[1] = biological target: T1, CD79b on the surface of B-cell …; experiment: flow cytometry on Ramos cells, goat anti-human IgG PE
Description: (§1) Ramos (ATCC, Cat #CRL-1596) and BJAB (AddexBio, USA, Cat #C0003016) were passaged according to the conventional procedures. Cells were counted after centrifugation and resuspension, adjusted to a density of 4×10⁶ cells/mL, poured into a loading tank, and seeded to a 96-well plate at 50 μL/well using a multichannel pipettor. 50 μL of the antibody sample diluted in gradient was added to the 50 μL of cells in each well, and the mixture was then incubated in an incubator at 5% CO₂ and 37° C. for 30 min. The mixture was centrifuged at 400 g for 5 min, then 200 μL of PBS was added, and the resulting mixture was centrifuged at 400 g for 5 min. This procedure was repeated 3 times. Goat anti-human IgG PE (1:200) was added, and the mixture was incubated for 30 min in the dark at room temperature. The mixture was washed with 200 μL of PBS twice, centrifuged, and then resuspended in 100 μL of PBS, and the values were read using a flow cytometer. The values were fitted to obtain a curve and EC₅₀ values were calculated.
(§2) The binding of the humanized antibodies to Ramos and BJAB cells was detected by flow cytometry. The assay was the same as in Example 4. The binding of the humanized antibodies to CD79b on the surface of Ramos cells is shown in FIG. 3; the binding of the humanized antibodies to CD79b on the surface of BJAB cells is shown in FIG. 4.

[2] = biological target: T1, CD79b on the surface of B-cell …; experiment: flow cytometry on BJAB cells, goat anti-human IgG PE
Description: as §1, §2

[3] = biological target: T2, human CD79b (recombinant antigen in the …); experiment: BLI (ForteBio), antibody loaded on sensor, antigen in solution
Description: (§3) Briefly, an AMQ (Pall, 1506091) sensor was equilibrated offline in an assay buffer for 30 min and then equilibrated online for 60 s to establish a baseline. The purified antibodies obtained as described above were each loaded online onto an AHQ sensor (ForteBio) for the ForteBio affinity assay. The sensor with the loaded antibody was then exposed to antigen CD79b before transferring the sensor to the assay buffer to measure the dissociation rate. The KD values were analyzed using ForteBio analysis software.
The equilibrium dissociation constants (KD) for the binding of the humanized antibodies of the present invention to human CD79b were determined by ForteBio.

[4] = biological target: T2, human CD79b (recombinant antigen in the …); experiment: as above; remark: listed apart in the source
Description: The equilibrium dissociation constants (KD) for binding of the antibodies of the present invention to CD79b were determined by bio-layer interferometry (ForteBio). A ForteBio affinity assay of prior art was performed (Estep, P., et al., “High throughput solution Based measurement of antibody-antigen affinity and epitope binning”, MAbs, 2013.5 (2): 270-8).
as §3

[5] = biological target: T5, human CD3E & CD3G-biotin (Sino biological) (human, UniProt P07766 23-126; P09693 23-116, limits assumed); experiment: SPR (Biacore T200), biotinylated CD3E&CD3G on streptavidin chip, antibody injected
T5 construct: also called Human CD3E&G
T5 sequence (P07766 23-126 limits assumed, chain 1 of 2): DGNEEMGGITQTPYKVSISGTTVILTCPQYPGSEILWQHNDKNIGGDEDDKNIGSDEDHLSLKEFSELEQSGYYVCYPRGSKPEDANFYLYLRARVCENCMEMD
T5 sequence (P09693 23-116 limits assumed, chain 2 of 2): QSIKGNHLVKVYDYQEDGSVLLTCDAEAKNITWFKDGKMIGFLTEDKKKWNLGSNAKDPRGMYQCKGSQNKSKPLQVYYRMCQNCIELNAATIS
Description: (§4) The binding kinetics of exemplary anti-CD79b/CD3 antibodies of the present invention for human CD79b, human CD3, and cynomolgus monkey CD3 were determined using surface plasmon resonance (Biacore T200). (1) Affinity assay of antibodies for human CD79b-his (Sino biological): 50 mM N-hydroxysuccinimide (NHS) and 200 mM 1-ethyl-3-(3-dimethylaminopropyl) carbodiimide hydrochloride (EDC) were freshly mixed and activated for 420 s at a flow rate of 10 μL/min. Human CD79b-His antigen was then diluted in 10 mM Acetate (pH 5.0), and after dilution to a concentration of 1 μg/mL, the antigen solution was subjected to coupling and the value was approximately 50 RU. Then 1 M ethanolamine was injected at a flow rate of 10 μL/min for 420 s to block the remaining activation sites. The buffer used in the experiment was HBS-EP+ solution at pH 7.4, and under a high performance mode, the antibodies obtained after 2-fold gradient dilution (0-80 nM) were each injected, according to an ascending order based on concentrations, into the channels 1, 2, 3 and 4 of the chip at a flow rate of 30 μL/min, wherein one cycle was used for determination of one concentration, the binding time was 180 s, and the dissociation time was 600 s. (2) Affinity assay of antibodies for human CD3E & CD3G-biotin (Sino biological) and monkey CD3E & CD3G-biotin (Sino biological): 50 mM NHS and 200 mM EDC were freshly mixed and activated for 420 s at a flow rate of 10 μL/min. Streptavidin (Thermo Fisher scientific) protein was then diluted in 10 mM Acetate (pH 4.5) and after dilution to a concentration of 10 μg/mL, the antigen solution was subjected to coupling and the value was approximately 3000 RU. Then 1 M ethanolamine was injected at a flow rate of 10 μL/min for 420 s to block the remaining activation sites. Human CD3E & CD3G-biotin and monkey CD3E & CD3G-biotin proteins were each immobilized on the chip channels coupled with Streptavidin protein. The antibodies (0-16 nM or 0-40 nM or 0-200 nM) obtained after 2-fold gradient dilution were each injected, according to an ascending order based on concentrations, into the channels 1, 2, 3 and 4 of the chip at a flow rate of 30 μL/min, wherein one cycle was used for determination of one concentration, the binding time was 180 s, and the dissociation time was 300 s.

[6] = biological target: T3, human CD79b-his (Sino biological); experiment: SPR (Biacore T200), CD79b-His coupled to chip, antibody injected
Description: as §4

[7] = biological target: T4, monkey CD3E & CD3G-biotin (Sino …); experiment: SPR (Biacore T200), biotinylated monkey CD3E&CD3G on streptavidin chip, antibody injected
Description: as §4

[8] = biological target: T1, CD79b on the surface of B-cell …; experiment: flow cytometry on BJAB cells, goat anti-human IgG PE; remark: listed apart in the source
Description: (§5) The binding ability of the CD79b/CD3 bispecific antibodies for CD79b-positive B-cell non-Hodgkin's lymphoma cell lines was detected by flow cytometry.
(§6) BJAB (AddexBio, USA, Cat #C0003016) and WSU-DLCL2 (Nanjing Kebai Biotechnology Co., Ltd., Cat #CBP60273) were cultured and passaged according to the conventional procedures. Cells were counted after centrifugation and resuspension, adjusted to a density of 4×10⁶ cells/mL, poured into a loading tank, and seeded to a 96-well plate at 50 μL/well using a multichannel pipettor. 50 μL of the antibody sample diluted in gradient was added to the 50 μL of cells in each well, and the mixture was then incubated in an incubator at 5% CO₂ and 37° C. for 30 min. The mixture was centrifuged at 400 g for 5 min, then 200 μL of PBS was added, and the resulting mixture was centrifuged at 400 g for 5 min. This procedure was repeated 3 times. Goat anti-human IgG PE (1:200) was added, and the mixture was incubated for 30 min in the dark at room temperature. The mixture was washed with 200 μL of PBS twice, centrifuged, and then resuspended in 100 μL of PBS, and the values were read using a flow cytometer. The values were fitted to obtain a curve and EC₅₀ values were calculated.

[9] = biological target: T1, CD79b on the surface of B-cell …; experiment: flow cytometry on WSU-DLCL2 cells, goat anti-human IgG PE
Description: as §5, §6

[10] = biological target: T2, human CD79b (recombinant antigen in the …); experiment: BLI (ForteBio)

Binder | EC50 (read off the curve) [1] | EC50 (read off the curve) [2] | Kd [3] | Kd [4] | also measured
A7v14b (antibody, V domains shown, also called CD79b.A7v14b) VH: EVQLVQSGAEVKKPGASVKVSCKASGYTFTTYYMNWVRQAPGQGLEWIGMIDPSDSETHYNQKFQGRATLTVDTSTSTAYLELSSLRSEDTAVYYCSRSLAFWGQGTLVTVSS VL: DIVMTQTPLSLPVTPGQPASISCKSSQSLLDSDGKTYLNWLLQKPGQSPQSLIYLVSKLDSGVPDRFSGSGSGTDFTLKISRVEAEDVGVYYCWQGTHFPQTFGQGTKVEIK | ~4 nM | ~3 nM | 1.84 nM | 1.84 nM | 
CD79b.A7v14b/38E4v1 (bispecific antibody, human IgG1, kappa, L234A L235A, also called CD79b.A7v14b x 38E4v1) heavy 1: not shown light 1: DIVMTQTPLSLPVTPGQPASISCKSSQSLLDSDGKTYLNWLLQKPGQSPQSLIYLVSKLDSGVPDRFSGSGSGTDFTLKISRVEAEDVGVYYCWQGTHFPQTFGQGTKVEIKRTVAAPSVFIFPPSDEQLKSGTASVVCLLNNFYPREAKVQWKVDNALQSGNSQESVTEQDSKDSTYSLSSTLTLSKADYEKHKVYACEVTHQGLSSPVTKSFNRGEC heavy 2: not shown light 2: not shown |  |  |  |  | Kd [5]: 1 nM; koff [5]: 0.00296 s⁻¹; kon [5]: 2.96e+06 M⁻¹ s⁻¹; Kd [6]: 8.66 nM; koff [6]: 0.00701 s⁻¹; kon [6]: 809000 M⁻¹ s⁻¹; Kd [7]: 1.52 nM; koff [7]: 0.00285 s⁻¹; kon [7]: 1.88e+06 M⁻¹ s⁻¹; EC50 (read off the curve) [8]: ~10 nM; EC50 (read off the curve) [9]: ~20 nM
polmab (antibody, human IgG1, kappa, V domains shown) VH: EVQLVESGGGLVQPGGSLRLSCAASGYTFSSYWIEWVRQAPGKGLEWIGEILPGGGDTNYNEIFKGRATFSADTSKNTAYLQMNSLRAEDTAVYYCTRRVPIRLDYWGQGTLVTVSS VL: DIQLTQSPSSLSASVGDRVTITCKASQSVDYEGDSFLNWYQQKPGKAPKLLIYAASNLESGVPSRFSGSGSGTDFTLTISSLQPEDFATYYCQQSNEDPLTFGQGTKVEIKR | ~3 nM | ~2 nM | 12.7 nM | 12.7 nM | Kd [10]: 13.7 nM
hz34F1.14 (antibody, V domains shown) VH: QVQLVQSGAEVKKPGASVKVSCKASGYSFTTYWMNWVRQAPGQGLTWMGMIDPSDSETHYNHLFKDRVTMTVDKSTSTAYMELSSLRSEDTAVYYCTRAIGYWGQGTLVTVSS VL: DVVMTQSPLSLPVTLGQPASISCKSSLSLLDSEGKTYLNWFQQRPGQSPRPLISLVSKLDSGVPDRFSGSGSGTDFTLKISRVEAEDVGVYYCWQGTHFPLTFGGGTKVEIK | ~20 nM | ~10 nM | 2.53 nM |  | 

The next lines start with results.

EC50 (read off the curve) [1] | EC50 (read off the curve) [2] | Kd [3] | Kd [4] | Binder | also measured
~5 nM | ~4 nM | 1.35 nM |  | hz11G10.9.p1 (antibody, V domains shown, Humanized monospecific anti-CD79b antibody; also called 11G10.9.01) VH: QVQLVQSGAEVKKPGASVKVSCKASGYTFTDYWVNWVRQAPGQGLEWMGMIDPSDSETHYNQMFNDRVTMTVDTSTSTVYMELSSLRSEDTAVYYCTRSNYYWGQGTLVTVSS VL: DIVMTQTPLSLSVTPGQPASISCKSSQSLLDSEGKTYLNWLLQKPGQSPQSLIYLVSKLDSGVPDRFSGSGSGTDFTLKISRVEAEDVGVYYCWQGTHFPLTFGGGTKVEIK | 
~2 nM | ~2 nM | 0.274 nM |  | hz38D9B3.11 (antibody, V domains shown, Humanized monospecific anti-CD79b antibody) VH: QVQLVQSGSELKKPGASVKVSCKASGYTFTDYSMHWVRQAPGQGLEWMGWINTETGEPSYADDFKGRFVFSLDTSVSTAYLQISSLKAEDTAVYYCYYGPYWGQGTLVTVSS VL: EIVLTQSPATLSLSPGERATLSCKASQSVDHDVDSYMDWYQQKPGQAPRLLIYSASNLESGIPARFSGSGSGTDFTLTISSLEPEDFAVYYCQQINEYPYTFGGGTKVEIK | 
